The source of these data is the supplement of paper PMC9170038.

The series has as its system MS2 coat protein. Put plainly: apparent KD of MS2 coat protein; designed switch direction (-1 OFF switch, 1 ON switch): -1; higher = weaker reporter binding. In short, it runs like this: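 SNAP-549-labelled MS2 coat protein was titrated, doubling from 0.7 or 1.5 nM to 3 µM, over designed RNA switches transcribed on Illumina chips by stalled E. coli RNA polymerase. Runs were done without input, with 200 uM small-molecule ligand, or with an oligonucleotide input. Apparent KD is the per-design median over clusters of curve-fitted normalised fluorescence.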

Setting [1] is: input ligand: microRNA oligo, concentration not stated.
The mark [2] stands for this setting: Eterna round: R95, input ligand: microRNA oligo, concentration not stated.
The mark [3] stands for this setting: Eterna round: R95, input ligand: FMN 200 uM.
The mark [4] stands for this setting: Eterna round: R95, input ligand: none.

In the case of “ACAGCAUAGUUAGGAUAUUGCCGACACUGUGUGUUCCUACACAUGAGGAUCACCCAUGUGAAGCGCGAGAAGGAACUAACUGAA [Eternabot solution 8] (Eterna round: R96, puzzle: Exclusion NG 2)”, the “apparent KD of MS2 coat protein” value by setting is: (input ligand: FMN 200 uM) 430 nM; under setting [1], 179 nM; (input ligand: none) 348 nM.

“GAUGGAGAGCAGGAUAUCUUGGGUAAGCAUCAUAGAGAAGGGCUCACAUGAGGAUCACCCAUGUGGUCCAAGAA [Usbiridi] (Eterna round: R96, puzzle: Exclusion 6)”: the “apparent KD of MS2 coat protein” value is, setting by setting: (input ligand: FMN 200 uM) 57 nM; under setting [1], 15.1 nM; (input ligand: none) 18.3 nM.

“ACAAGUUUUUAGAUUCUUAACAUGAGGAUCACCCAUGUGCUCGUCUUGUUUGUACUAUCACCGCCGGUGAUAGUACA (Eterna round: R97, puzzle: Sensor, turn-off variant 1)”: the “apparent KD of MS2 coat protein” value is 65 nM (input ligand: FMN 200 uM) and 81 nM (input ligand: none).

For the sequence “UCGUUCCGUGUAGGAUAUUGGUCUCCCUCGGGCCGAGAAGGACAUGAGGAUCACCCAUGUAUGUUAUUAUCGCGCGUGGCGCAU [Design 90] (Eterna round: R96, puzzle: Exclusion NG 1)”, the “apparent KD of MS2 coat protein” value came to 29.5 nM (input ligand: FMN 200 uM), 17.8 nM under setting [1] and 24.1 nM (input ligand: none).

Regarding “GAAAACGAAGAGGAUAUAUGAUAUCAAAGCUUCAUAGAAGGCUUCACAUGAGGAUCACCCAUGUGAUCUUCAAU [Mat - Exclusion 6 - JL Mod - D23] (Eterna round: R97, puzzle: Exclusion 6)”, the “apparent KD of MS2 coat protein” value by setting is: (input ligand: FMN 200 uM) 244 nM; (input ligand: none) 41.6 nM.

Regarding “AGCAUGCGGAAGGAUAUUUGGAGUAGCGACUCGGGAGAAGGUCUGACAUGAGGAUCACCCAUGUGGAGAGACUG [Eternabot (L1) Solution 59] (Eterna round: R97, puzzle: Exclusion 6)”, the “apparent KD of MS2 coat protein” value reads like this: (input ligand: FMN 200 uM) 39.2 nM; (input ligand: none) 20.9 nM.

As for “CGUGACUCAGGAUAUCUAUUAUGUCACAUGAGGAUCACCCAUGUCCAGCGAAAGCUGGAGGGAGAAGGGAGUCACG [Fiskers Ex 5 - 45] (puzzle: Exclusion 5)”, the “apparent KD of MS2 coat protein” value under setting [2] is 118 nM.

“UUUACAAGCUUAAGAUCCCACAUGAGGAUCACCCAUGUUCCUGGCCGUGAGGCUAGGUAAACUUAUGCUCGUCUUAU [JL TOV1 3.68] (Eterna round: R97, puzzle: Sensor, turn-off variant 1)”: the “apparent KD of MS2 coat protein” value by setting is: (input ligand: FMN 200 uM) 141 nM; (input ligand: none) 138 nM.

As to “CUGGACCCGGUAGGAUAUAUUGUGGGCGGGCGUGGAACGACAUGAGGAUCACCCAUGUGAUUGAGGUAGAAGGGCCGAGAGGUU [Excl-NG2-LRO18] (Eterna round: R96, puzzle: Exclusion NG 2)”, the “apparent KD of MS2 coat protein” value is 52.7 nM (input ligand: FMN 200 uM), 33.8 nM under setting [1] and 61.8 nM (input ligand: none).

For the sequence “AGUACAUUCACGAAAGUGAAUGUACAAUAAGCUUGUGGAACAUGAGGAUCACCCAUGUCCUCAUAAGCUCGUCUUAU [Mat - Sensor v3 - Turn-off var 2 - D31] (puzzle: Sensor v3, turn-off variant 2)”, the “apparent KD of MS2 coat protein” value reads like this: under setting [3], 16.1 nM; under setting [2], 68.7 nM; under setting [4], 14.6 nM.

For the sequence “CGGUGCUGAGGAUAUACAUGAGGAUCACCCAUGUGUGCCAGCUAGCUGACUGGCACUUGUAGAAGGCAGUACUG [JL-ex3-2.13 Brourd mod] (puzzle: Exclusion 3)”, the “apparent KD of MS2 coat protein” value under setting [2] is 12.4 nM.

For “AACAGUGAUGAGGAUAUAUAAAGAGAAAAGAAAAUAGAAGGUGUCACAUGAGGAUCACCCAUGUGUUCUUCAGA [EX6 A.12] (Eterna round: R97, puzzle: Exclusion 6)”, the “apparent KD of MS2 coat protein” value by setting is: (input ligand: FMN 200 uM) 17.4 nM; (input ligand: none) 16.5 nM.

Take “GGCGGACAUGAGGAUCACCCAUGUUAGGAUAUGGUGCGAUCGUCGAUAGACGAUAGCACCAGAAGGGACACGCC [Mat - Exclusion 1 - Eli Mod - D2] (Eterna round: R97, puzzle: Exclusion 1)”: the “apparent KD of MS2 coat protein” value was 16.6 nM (input ligand: FMN 200 uM) and 16.9 nM (input ligand: none).

For the sequence “AGCUAGUGCCGAGGAUAUACAUGAGGAUCACCCAUGUAGGCCAGUCGGUUUCUGACUGGCGAGAUGUAGAAGGCGGCGUUGGCA [JL ENG2 1.51] (Eterna round: R96, puzzle: Exclusion NG 2)”, the “apparent KD of MS2 coat protein” value reads like this: (input ligand: FMN 200 uM) 49 nM; under setting [1], 12.6 nM; (input ligand: none) 15.6 nM.

Consider “UUUCUCUGUGUGAGGAUAUACUUGUUUGGGUUUUUGUAGAAGGCACAUGAGGAUCACCCAUGUAUUUUGUCGUG [JR_BME4_Sub019] (puzzle: Brourd's mod of Exclusion 4)”, for which the “apparent KD of MS2 coat protein” value under setting [2] stood at 31.5 nM.

For the sequence “AGUCUGCGAGGAUAUACAUGAGGAUCACCCAUGUGCGAGAAACUAGUGAGGUCGAUUGGUAGAAGGCGCGGACA [Mat - Exclusion 3 - Mod of JL D87] (puzzle: Exclusion 3)”, the “apparent KD of MS2 coat protein” value under setting [3] is 34.7 nM, the “apparent KD of MS2 coat protein” value under setting [2] amounted to 200 nM and the “apparent KD of MS2 coat protein” value under setting [4] was 356 nM.

For the sequence “ACCUAUGAGGAGGAUAUACGGUGCGAAAGGAAGGUAGAAGGCUUCACAUGAGGAUCACCCAUGUCGAUAAGCGA [EX6 #85] (Eterna round: R97, puzzle: Exclusion 6)”, the “apparent KD of MS2 coat protein” value is, setting by setting: (input ligand: FMN 200 uM) 27.7 nM; (input ligand: none) 23.3 nM.

As for “UAAAUUAUAGUAAGGAUAUCAGUCGCGAAAGUGGCUGAGAAGGUACAUGAGGAUCACCCAUGUGAAAUAAGAAU [Mod of Zala 17 - Jieux - Brourd's Mod of Exclusion 4] (Eterna round: R97, puzzle: Brourd's mod of Exclusion 4)”, the “apparent KD of MS2 coat protein” value (input ligand: FMN 200 uM) came to 25.7 nM and the “apparent KD of MS2 coat protein” value (input ligand: none) is 20 nM.

“UUAAAUCAUGUAGGAUAUGCGUGGGAAAACUAUGCAGAAGGACAUGAGGAUCACCCAUGUGCUUCCGUCUGAGAACAGACGGUA [Mat - Exclusion NG 1 - Mod of JL - D15] (Eterna round: R96, puzzle: Exclusion NG 1)”: the “apparent KD of MS2 coat protein” value is, setting by setting: (input ligand: FMN 200 uM) 226 nM; under setting [1], 76.1 nM; (input ligand: none) 87.8 nM.

In the case of “AAAUGGAACAGAGGAUAUAGGGACAUGAGGAUCACCCAUGUUUUUUUUGGUUGGGUGGGUUUGGGCUAGAAGGCUGGGAAGAAA [Kawasakiqro] (Eterna round: R96, puzzle: Exclusion NG 2)”, the “apparent KD of MS2 coat protein” value was 30.2 nM (input ligand: FMN 200 uM), 26.8 nM under setting [1] and 33 nM (input ligand: none).

As to “GGUCAAGAACAGAUCCGCGCUGCCAUUGACCGCUCAUUUACAUGAGGAUCACCCAUGUUUUUUGCUCGUCUUACUAC [Edesso] (puzzle: Sensor v3, turn-off variant 2)”, the “apparent KD of MS2 coat protein” value turned out to be 20.8 nM under setting [3], 61.4 nM under setting [2] and 19.3 nM under setting [4].

“UAUAUAUAGUAAGGAUAUGUAUUUAUUCUAUAAACAGAAGGUACUGACAUGAGGAUCACCCAUGUUUUAGUGUGGGCAUGUAGA [JMF's solution 18] (Eterna round: R96, puzzle: Exclusion NG 1)”: the “apparent KD of MS2 coat protein” value under setting [1] was found to be 33 nM.

On to “ACAACAUGAGGAUCACCCAUGUGUGUUGUCCCAUGUGUGUAUAAGGAUAUAUGAAGGAAGGAGGAAUAGAAGGUAUAGAAGGAG [Am I even doing this right] (Eterna round: R96, puzzle: Exclusion NG 3)”, for which the “apparent KD of MS2 coat protein” value reads like this: (input ligand: FMN 200 uM) 84.1 nM; under setting [1], 9.25 nM; (input ligand: none) 1200 nM.

“UAUUAGCAAGUGAGAUCCGACAUGAGGAUCACCCAUGUGCUCGUCUUAUAAGCUAAUAUAAGAAAACUUAUAUUAGC [Elimod 7 - Jieux - Sensor, turn-off variant 1] (Eterna round: R97, puzzle: Sensor, turn-off variant 1)”: the “apparent KD of MS2 coat protein” value by setting is: (input ligand: FMN 200 uM) 242 nM; (input ligand: none) 284 nM.

“GGGCCCGGUGUGAGGAUAUGCCCGGGUAAACCCGGGUAGAAGGCACAUGAGGAUCACCCAUGUAAGCCGGGCCC [-43, -40.9 kcal, A 23%, 5cbis-0] (Eterna round: R97, puzzle: Brourd's mod of Exclusion 4)”: the “apparent KD of MS2 coat protein” value was found to be 12.8 nM (input ligand: FMN 200 uM) and 17.7 nM (input ligand: none).

As for “GGUCCGAGUGUGAGGAUAUGCUGGUCCUUGGAUCAGCAGAAGGCACAUGAGGAUCACCCAUGUGAAGACGGACC [Mat - Exclusion 4 - Eli Mod - D30] (Eterna round: R97, puzzle: Brourd's mod of Exclusion 4)”, the “apparent KD of MS2 coat protein” value (input ligand: FMN 200 uM) amounted to 537 nM and the “apparent KD of MS2 coat protein” value (input ligand: none) is 91.5 nM.

Consider “UGGAUAACAGGAUAUACAUGAGGAUCACCCAUGUUUCCGGACGGAGACGAAUCCUAGAGUAGAAGGGUUAUCCC [Eternabot (Original) Solution 17] (Eterna round: R97, puzzle: Exclusion 3)”, for which the “apparent KD of MS2 coat protein” value came out at 388 nM (input ligand: FMN 200 uM) and 362 nM (input ligand: none).

Consider “GGAUCGUAUGUCAGGAUAUACCACUGGAUACAGUGGUAGAAGGGACAUGAGGAUCACCCAUGUGUUAUCGAUCC [Fiskers BMX 4 - 55] (puzzle: Brourd's mod of Exclusion 4)”, for which the “apparent KD of MS2 coat protein” value under setting [2] stood at 41.5 nM.

Regarding “AUAAUGUGAGGAUAUCACGGCCCGAUGAGUACGGUAAACGAUGAGAAGGCACAUGAGGAUCACCCAUGUUCCUG [EX4 A.15] (Eterna round: R97, puzzle: Exclusion 4)”, the “apparent KD of MS2 coat protein” value is, setting by setting: (input ligand: FMN 200 uM) 47.8 nM; (input ligand: none) 11.4 nM.

For the sequence “GAGUGACAUGAGGAUCACCCAUGUGAGGAUAUCGGCCGGACCUUGUUAGCUUCCGCCGCGAGAAGGCACAUCGG [Exclusion 1 V28] (puzzle: Exclusion 1)”, the “apparent KD of MS2 coat protein” value under setting [2] came to 55.9 nM.
